Results from the supplement of paper PMC9732359.
± gives the uncertainty stated by the source.

Assay: protein stability index of a GFP-peptide fusion (yeast GPS) (PSI 1-4); higher = more stable; sorted into four equal gates, so the index is relative within each strain
How it was run: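 Yeast carrying a pooled library were grown to mid-log phase in leucine-free medium. Each library plasmid expresses Cherry and has a tiled 17-residue yeast protein peptide fused downstream of GFP. Cells were sorted into four equal gates by GFP/Cherry ratio, and plasmids from each gate were PCR-amplified, Illumina-sequenced and assigned to strains by barcode. Summing, across gates, the read frequency times the gate number gave each peptide's protein stability index.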

Sequence | protein stability index (doa10∆) | protein stability index (pdr5∆) | protein stability index (san1∆) | protein stability index (ubr1∆)
NNLSNQLETLTGSIRHR [CSE2] | 3.06 ± 0.096 | 2.98 ± 0.06 | 3.04 ± 0.049 | 3.13 ± 0.059
NNNNSTRPQMPSRTRET [GRR1] | 2.937 ± 0.027 | 3.108 ± 0.027 | 2.949 ± 0.024 | 3.033 ± 0.021
NNQQRLLLKKLDNFQKS [SMC3] | 2.55 ± 0.06 | 2.64 ± 0.068 | 2.41 ± 0.054 | 2.45 ± 0.043
NNTKAGRRKTWKRQNTL [RPL15A] | 2.65 ± 0.059 | 2.95 ± 0.07 | 2.44 ± 0.083 | 2.87 ± 0.12
NNTNNANSSITPAFGSN [YJL041W/NSP1] | 3.06 ± 0.11 | 3.06 ± 0.11 | 2.86 ± 0.11 | 3.06 ± 0.12
NNTTTTSTKPSFSFGAP [YOR098C/NUP1] | 3.26 ± 0.11 | 3.38 ± 0.1 | 3.04 ± 0.056 | 3.01 ± 0.076
NNVDNKYKSGGKFSFSP [SSN2] | 2.23 ± 0.054 | 2.37 ± 0.044 | 2.63 ± 0.064 | 2.17 ± 0.038
NPLADAEEALEPSYIFE [PRE4] | 3.09 ± 0.072 | 2.83 ± 0.077 | 3.08 ± 0.055 | 3.12 ± 0.06
NPNPSSQRAQVVTMSVK [RPC37] | 2.3 ± 0.067 | 2.83 ± 0.071 | 2.1 ± 0.068 | 2.42 ± 0.075
NPSITRLEEESSWQIYS [RRP4] |  | 3.07 ± 0.21 |  | 2.07 ± 0.097
NQIADLSGKFSTIPTRE [ROX3] | 2.98 ± 0.091 | 2.96 ± 0.093 | 2.81 ± 0.071 | 3.23 ± 0.07
NQIQRQQQQQFRHHVQI [SNF5] | 1.86 ± 0.04 | 2.08 ± 0.045 | 1.88 ± 0.085 | 1.91 ± 0.03
NQKIPDNVIVINHKINN [SIR3] | 1.93 ± 0.06 | 2.03 ± 0.053 | 1.79 ± 0.066 | 2.14 ± 0.041
NQNQRNVNETMSRSLAN [SMC3] | 3.11 ± 0.12 | 2.65 ± 0.12 | 3.15 ± 0.059 | 2.86 ± 0.077
NQQPQQQQQQQQNPKFL [SWI1] | 2.96 ± 0.048 | 3.02 ± 0.04 | 2.989 ± 0.026 | 2.9 ± 0.029
NQQQPPQDILSKLYLLL [SNF11] | 2.09 ± 0.042 | 2.55 ± 0.051 | 2.47 ± 0.056 | 2.54 ± 0.045
NQSAYEWNGKSFQKKSN [ISW2] | 3.16 ± 0.11 | 3.12 ± 0.17 | 3.09 ± 0.064 | 2.99 ± 0.13
NRYAYVLSSLMFANMKV [LRP1] | 2.47 ± 0.064 | 2.25 ± 0.058 | 2.08 ± 0.068 | 3.01 ± 0.047
NSDDFFMDNSYDIDEID [ESC2] | 2.27 ± 0.058 | 2.64 ± 0.077 | 2.64 ± 0.075 | 2.31 ± 0.051
NSEKYYDEDPYGFEDES [RPB2] | 3.47 ± 0.18 | 3.32 ± 0.079 | 3.27 ± 0.066 | 3.25 ± 0.13
NSGIIPGNRNADNVDKI [FAS2] | 2.52 ± 0.083 | 2.52 ± 0.1 | 3.03 ± 0.091 | 3.04 ± 0.05
NSIDVPIRINSTEEIEY [YMR129W/POM152] | 1.76 ± 0.055 | 2.27 ± 0.058 | 2.01 ± 0.071 | 2.6 ± 0.034
NSILSVRDPWSIDFRTY [SRB2] | 2.71 ± 0.1 | 2.68 ± 0.14 | 2.48 ± 0.22 | 2.98 ± 0.1
NSKMPTRFPPAVFYTPK [PRP8] | 2.76 ± 0.056 | 3.09 ± 0.068 | 2.94 ± 0.054 | 2.93 ± 0.061
NSMDMVDGMAKVPIGLI [RGR1] | 3.4 ± 0.12 | 3.37 ± 0.072 | 2.99 ± 0.15 | 3.23 ± 0.073
NSNDSVFVGSGKGTGKT [BRR2] | 3.36 ± 0.14 | 3.27 ± 0.16 | 3.32 ± 0.1 | 3.33 ± 0.11

Sequence | protein stability index (doa10∆) | protein stability index (pdr5∆) | protein stability index (san1∆) | protein stability index (ubr1∆)
NSNGIAMASLYLTGGQQ [SMD1] | 2.44 ± 0.073 | 2.66 ± 0.06 | 2.63 ± 0.063 | 2.59 ± 0.059
NSPSKGNSERPSAVAGF [YIL149C/MLP2] | 3.2 ± 0.087 | 3.45 ± 0.1 | 3.1 ± 0.089 | 3.16 ± 0.11
NSPSSALRALQENGTIF [YDL088C/ASM4] | 2.13 ± 0.062 | 2.05 ± 0.053 | 1.53 ± 0.069 | 2.01 ± 0.039
NSSSSTPNTNSNSTPNA [SWI1] | 2.96 ± 0.087 | 2.98 ± 0.09 | 3.12 ± 0.069 | 3.21 ± 0.059
NSTDGAKITEIGSTSKR [YIL149C/MLP2] | 3.02 ± 0.12 | 2.91 ± 0.086 | 3.01 ± 0.074 | 3.18 ± 0.062
NTHYHADYRLILTGTPL [SNF2] | 1.31 ± 0.11 | 1.71 ± 0.097 | 1.39 ± 0.12 | 1.75 ± 0.076
NTKEIAVDLEHHDYRSY [RRP6] | 2.93 ± 0.06 | 3.07 ± 0.048 | 3.15 ± 0.056 | 3.054 ± 0.03
NTLILRGPRNSREAVRH [RPL18A] | 2.53 ± 0.25 | 2.89 ± 0.18 |  | 
NTLIPESSLTISLYFND [ECM29] | 1.92 ± 0.046 | 2.19 ± 0.052 | 1.99 ± 0.061 | 2.42 ± 0.043
NTLLVTGPFKVNGVPLR [RPL6B] | 2.74 ± 0.12 | 2.66 ± 0.082 | 2.63 ± 0.081 | 2.74 ± 0.045
NTNELKEVSSFLMGIFN [MTR3] | 2.93 ± 0.067 | 3.06 ± 0.061 | 2.92 ± 0.061 | 3.1 ± 0.046
NTNTENENRNTGAGVDV [SNF11] | 2.9 ± 0.062 | 2.98 ± 0.045 | 2.66 ± 0.044 | 2.88 ± 0.044
NTQDLLLLLSLFKKITN [YML103C/NUP188] | 1.26 ± 0.038 | 1.3 ± 0.033 | 1.58 ± 0.068 | 1.55 ± 0.036
NVFGTLQRHSGISSTLV [YLR018C/POM34] | 2.03 ± 0.09 | 2.01 ± 0.096 | 1.77 ± 0.23 | 3.25 ± 0.27
NVNMTVNTMGTGGQTID [MED6] | 3.23 ± 0.3 | 3.44 ± 0.12 | 3.06 ± 0.14 | 3.37 ± 0.29
NVNNNNIGQQQVKKPRK [SWI1] | 3.42 ± 0.12 | 3.37 ± 0.16 | 3.29 ± 0.084 | 3.13 ± 0.21
NVPVHVSPAFRVQVGDI [RPS11A] | 2.69 ± 0.075 | 3.15 ± 0.08 | 2.68 ± 0.079 | 2.71 ± 0.06
NVQLRDVIATEPQGAVT [SMD3] | 2.96 ± 0.069 | 2.98 ± 0.1 | 2.39 ± 0.09 | 2.67 ± 0.071
NVRSVIRSSRSRGIVIG [RPP1] | 3 ± 0.076 | 3.1 ± 0.078 | 3.15 ± 0.16 | 3.2 ± 0.072
NVVEIWVFSYLRWFELK [SIR3] | 1.31 ± 0.088 | 1.38 ± 0.066 | 2.17 ± 0.16 | 2.21 ± 0.063
NVVGKLISIISSVIQNY [YML103C/NUP188] | 1.79 ± 0.073 | 1.44 ± 0.078 | 1.36 ± 0.13 | 1.51 ± 0.089
NWAKFTATASLGVIHKG [RPN2] | 1.81 ± 0.06 | 1.81 ± 0.053 | 1.91 ± 0.069 | 2 ± 0.061
NWRRLSGRNIHLAVVCV [SSN2] | 2.12 ± 0.085 | 1.58 ± 0.044 | 1.55 ± 0.078 | 2.86 ± 0.045
NYGMIAINPGRVAASFS [FAS1] | 1.72 ± 0.1 | 1.89 ± 0.09 | 1.46 ± 0.076 | 1.81 ± 0.06
NYILNFKQSNSETFLQF [CDC53] | 2.57 ± 0.13 | 1.43 ± 0.1 | 1.77 ± 0.17 | 2.12 ± 0.11
NYLNDMHDSNLQNNSDS [SKP1] | 2.48 ± 0.12 | 2.59 ± 0.063 | 2.3 ± 0.08 | 2.7 ± 0.054

Sequence | protein stability index (doa10∆) | protein stability index (pdr5∆) | protein stability index (san1∆) | protein stability index (ubr1∆)
NYSSESYRNAFTNVLTK [YJL039C/NUP192] | 2.56 ± 0.047 | 2.38 ± 0.067 | 2.31 ± 0.067 | 2.48 ± 0.038
NYTQNIDNLESYAGIST [SIR2] | 2.92 ± 0.059 | 2.96 ± 0.09 | 2.87 ± 0.071 | 3.01 ± 0.044
PADSTYGAYNTQIANAG [PRE4] | 1.8 ± 0.097 | 2.03 ± 0.067 | 2.08 ± 0.15 | 1.69 ± 0.049
PAEVGRAIRSEKYGKQV [BRR2] | 3.27 ± 0.22 | 3.15 ± 0.073 |  | 
PAFSFGAKPEEKKDDNS [YJL041W/NSP1] | 3.27 ± 0.16 | 3.26 ± 0.13 | 2.98 ± 0.24 | 3.29 ± 0.13
PAHTKYMLIEEAASSNK [ITC1] | 3.05 ± 0.12 | 2.93 ± 0.11 | 3.02 ± 0.1 | 3.01 ± 0.095
PAHTVIIKGTDVYSPEK [BRR2] | 3.02 ± 0.055 | 3.19 ± 0.077 | 2.54 ± 0.072 | 2.68 ± 0.055
PALVGKLRGDLREAPAD [SNF6] | 3.19 ± 0.21 | 3.12 ± 0.19 | 2.24 ± 0.19 | 2.5 ± 0.17
PANAEPQAVTITSIMDD [ITC1] | 2.39 ± 0.11 | 2.83 ± 0.09 | 2.49 ± 0.069 | 3.02 ± 0.11
PAQKDSSVVSEPKKPSF [YOR098C/NUP1] | 2.94 ± 0.061 | 2.71 ± 0.05 | 2.3 ± 0.076 | 2.89 ± 0.042
PDGTLIASAGKDGEIML [ASC1] | 3.06 ± 0.073 | 3.26 ± 0.091 | 3.29 ± 0.045 | 2.8 ± 0.045
PDRHVIFLAERRILPKP [RPS7B] | 2.81 ± 0.18 | 2.75 ± 0.14 | 2.99 ± 0.096 | 
PDVKSLVQLSTMETKTL [SIR4] | 2.92 ± 0.071 | 2.83 ± 0.073 | 2.81 ± 0.052 | 2.98 ± 0.063
PEPSHIDQVMMSVSDND [RET1] | 2.43 ± 0.047 | 2.06 ± 0.045 | 2.43 ± 0.05 | 2.48 ± 0.042
PFDQNLDSNNNNSNSNN [SWI1] | 2.65 ± 0.033 | 2.74 ± 0.037 | 2.839 ± 0.026 | 2.74 ± 0.027
PFFSSNTSSLQSFQNPF [YIL149C/MLP2] | 2.93 ± 0.058 | 2.25 ± 0.055 | 2.69 ± 0.05 | 2.81 ± 0.033
PFGAKSTKSNKAKNPLT [RPL8B] | 3.38 ± 0.094 | 3.1 ± 0.067 | 2.98 ± 0.061 | 2.93 ± 0.091
PFGAKSTKSNKTRNPLT [RPL8A] | 2.73 ± 0.072 | 2.99 ± 0.062 | 2.88 ± 0.057 | 2.8 ± 0.056
PFGVSTIFGGVDKNGAH [PRE10] | 3.06 ± 0.076 | 2.98 ± 0.069 | 2.73 ± 0.12 | 2.97 ± 0.049
PFHSHLLVPASDLINKD [FAS1] | 1.83 ± 0.03 | 2.15 ± 0.035 | 2.13 ± 0.048 | 1.96 ± 0.032
PFLHLRKKTPAGDWKYD [FAS2] | 3.2 ± 0.29 | 3.32 ± 0.2 | 2.54 ± 0.24 | 3.08 ± 0.21
PFLLMELHKKLVEAAKL [YDL116W/NUP84] | 1.41 ± 0.11 | 1.13 ± 0.093 |  | 1.25 ± 0.13
PFLNETKPGVYYVPYSK [RPC82] | 3.09 ± 0.12 | 2.97 ± 0.13 | 3.03 ± 0.064 | 3.36 ± 0.091
PFNKPNIETGENHNGQS [SWI3] | 3.3 ± 0.14 | 3.16 ± 0.12 | 3.22 ± 0.13 | 2.78 ± 0.13
PFTDITVEGISKLLREH [RPB2] | 2.27 ± 0.076 | 2.4 ± 0.079 | 2.51 ± 0.077 | 2.42 ± 0.067
PGDIVRAQVLSLGDGTN [CSL4] | 3.62 ± 0.24 | 3.26 ± 0.12 | 3.14 ± 0.12 | 3.29 ± 0.12
